The record followed here is patent US20210275657A1 (published 2021).

A value given as a limit tells only on which side of the number the result lay.

The target of assay [1] is T1, GATA3 neoORF (frameshift mutation of GATA3), common region peptide on HLA-A*02:01 (human). As to the kind of experiment: Summary statement of the same IL-2 peptide titration with TCR-transduced Jurkat cells and peptide loaded HEK 293T cells; full-length, on cells.
Assay [2] addresses T1, GATA3 neoORF (frameshift mutation of …). As to the kind of experiment: IL-2 release (Meso Scale Discovery) by TCR-transduced Jurkat cells, 10:1 with HEK 293T cells (endogenous HLA-A02:01) loaded overnight with titrated GATA3 peptide; FIG. 44; full-length, on cells.

B1: GATA3 specific TCR clonotype 1 (TCR, V domains shown)
Valpha: SQKIEQNSEALNIQEGKTATLTCNYTNYSPAYLQWYRQDPGRGPVFLLLIRENEKEKRKERLKVTFDTTLKQSLFHITASQPADSATYLCALDIYGNNRLAFGKGNQVVVIP
Vbeta: DVKVTQSSRYLVKRTGEKVFLECVQDMDHENMFWYRQDPGLGLRLIYFSYDVKMKEKGDIPEGYSVSREKKERFSLILESASTNQTSMYLCASSLDFVLAGSYSYNEQFFGPGTRLTVL
In the case of B1, the EC50 of peptide was less than 40 nM in assay [1] and 37.9 nM in assay [2].
